Assay [1] addresses histidine-tagged human FcγRIIIa-158V (human) (UniProt P08637). Nature of the assay: BLI (Octet Red384); His-tagged receptor on anti-Penta-HIS biosensor; antibody 15.6-500 nM, PBS pH 7.2; global 1:1 fit. On the technique in general: BLI is a label-free optical method that tracks binding on a fibre tip over time.
The target of assay [2] is histidine-tagged human FcγRIIIa-158F (human) (UniProt P08637). Nature of the assay: BLI (Octet Red384); His-tagged receptor (row FcγRIIIA (F158)) on anti-Penta-HIS biosensor; antibody 125-4000 nM, PBS pH 7.2; global 1:1 fit.
Assay [3] concerns the target histidine-tagged mouse FcRn (mouse) (UniProt Q61559). Nature of the assay: BLI (Octet Red384); His-tagged receptor (row moFcRn) on anti-Penta-HIS biosensor; antibody 75-1000 nM, PBS pH 5.8; global 1:1 fit.
Assay [4] concerns the target histidine-tagged human FcγRIIIa-158V (human) (UniProt P08637). Nature of the assay: BLI (Octet Red384); His-tagged receptor on anti-Penta-HIS biosensor; antibody 125-4000 nM, PBS pH 7.2; global 1:1 fit.
Assay [5] has as its target histidine-tagged human FcγRIIIa-158F (human) (UniProt P08637). Described as above.
The target in assay [6] is histidine-tagged mouse FcγRIV (mouse). Described as above.
For assay [7], the target named is histidine-tagged human FcRn (human) (UniProt P55899). As to the kind of experiment: BLI (Octet Red384); His-tagged receptor (row FcRn) on anti-Penta-HIS biosensor; antibody 75-1000 nM, PBS pH 5.8; global 1:1 fit.
Assay [8] addresses histidine-tagged mouse FcγRIV (mouse). Nature of the assay: BLI (Octet Red384); His-tagged receptor (row moFcγRIV) on anti-Penta-HIS biosensor; antibody 125-4000 nM, PBS pH 7.2; global 1:1 fit.
In assay [9] the target is histidine-tagged human FcRn (human) (UniProt P55899). As to the kind of experiment: BLI (Octet Red384); His-tagged receptor on anti-Penta-HIS biosensor; antibody 75-1000 nM, PBS pH 5.8; global 1:1 fit.
Assay [10] has as its target histidine-tagged mouse FcRn (mouse) (UniProt Q61559). Described as above.
Assay [11] addresses histidine-tagged human FcγRIIIa-158V (human) (UniProt P08637). Nature of the assay: BLI (Octet Red384); His-tagged receptor (row FcγRIIIA (V158)) on anti-Penta-HIS biosensor; antibody 125-4000 nM, PBS pH 7.2; global 1:1 fit.

By Kd is commonly meant the free concentration of one partner at which half of the binding sites on the other are occupied at equilibrium, for simple one-to-one binding. A low value points to a tighter complex. The koff is the rate constant with which the complex falls apart. Higher therefore signals fast dissociation. What is called kon is the second-order rate constant of association. Read a low kon as slow association. In [1], “antigen-binding molecule specific for HER3 comprising GASD Fc, human IgG1 (G1m3 allotype) (antibody)” registered a Kd of 115 nM, a koff of 0.017 s⁻¹ and a kon of 150000 M⁻¹ s⁻¹.
In assay [1], “antigen-binding molecule specific for HER3 comprising GASDALIE Fc, human IgG1 (G1m3 allotype) (antibody)” gave a Kd of 24 nM, a koff of 0.0052 s⁻¹ and a kon of 220000 M⁻¹ s⁻¹.
For the substance “antigen-binding molecule specific for HER3 comprising GASDIE Fc, human IgG1 (G1m3 allotype) (antibody)”, in [1], the dissociation constant (Kd) is 35 nM, the koff is 0.0072 s⁻¹ and the kon was found to be 200000 M⁻¹ s⁻¹.
In the case of “antigen-binding molecule specific for HER3 comprising Wildtype (WT) Fc, human IgG1 (G1m3 allotype) (antibody)”, the Kd in assay [2] stood at 2230 nM; in [3] it was 15.1 nM; in assay [4] it was 661 nM; in assay [5] it was 2230 nM; in assay [6], 544 nM; in assay [7], 33.7 nM. For the same substance, the equilibrium dissociation constant (Kd) worked out at 544 nM in assay [8]; 317 nM in assay [1]; 33.7 nM in [9]; 15.1 nM in assay [10]; 661 nM in assay [11].
